Source: patent US20250346644A1 (LATTICON SUZHOU BIOPHARMACEUTICALS, published 2025)
Substitutions are numbered along the chain they refer to. Names and notes keep the numbering of the source. Like-named read-outs stand apart in the source and are kept apart here.

How the values were obtained:
[1] = molecular target: T1, hIL2-DM-his (human, UniProt P60568 21-153); test: BLI ForteBio, Ab on Protein A sensor
T1 construct: expressed in ExpiCHO-S cells, nickel-column purified; also called hIL-2 mutein containing two point mutations K64G and N90R (with a his-tag); not shown: his-tag
T1 sequence (P60568 21-153 K84G/N110R): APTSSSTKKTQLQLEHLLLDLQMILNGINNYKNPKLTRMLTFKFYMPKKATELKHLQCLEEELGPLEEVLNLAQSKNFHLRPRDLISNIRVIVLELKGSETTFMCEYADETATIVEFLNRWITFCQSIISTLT

[2] = molecular target: T1, hIL2-DM-his; test: BLI ForteBio, Ab on Protein A sensor; remark: listed apart in the source
Protocol: After each cycle of association and dissociation steps, the sensor was regenerated by 10 mM glycine buffer (pH 1.5) and then stated with the next cycle of detection. After the detection, the association rate constant and dissociation rate constant between the antibody and antigen were fitted and extrapolated using the analytical software, and the value of affinity constant (KD) was calculated.

B1: K1G1 (antibody, V domains shown)
VH: QVQLVQSGAEVKKPGATVKISCKVSGDTITAYYMHWVRQAPGQGLEWIGRIDPEDDSTKYAENFKGRVTITADTSTDTAYMELSSLRSEDTAVYYCTTVTFYYSRELRWFAYWGQGTLVTVSS
VL: DIVLTQSPATLSLSPGERATLSCQASQYISNYLSWYQQKPGQAPRLLIYQATSLASGIPARFSGSRSGTDFTLTISSLEPEDFAVYYCLQHYSTPYTFGQGTKLEIK
B1 gave a Kd [1] of 1.43 nM, a koff [1] of 0.000491 s⁻¹ and a kon [1] of 343000 M⁻¹ s⁻¹.

B2: K2G4 (antibody, V domains shown)
VH: B1 VH with Y102L
VL: B1 VL with Q50S
Binder B2 has a Kd [1] of 1.08 nM, a koff [1] of 0.000455 s⁻¹ and a kon [1] of 421000 M⁻¹ s⁻¹.

B3: K3G5 (antibody, V domains shown)
VH: B1 VH with S104T
VL: B1 VL with S30G
In the case of B3, the Kd [1] is reported as 3.72 nM, the koff [1] is reported as 0.00124 s⁻¹ and the kon [1] is reported as 334000 M⁻¹ s⁻¹.

B4: K1G8 (antibody, V domains shown)
VH: B1 VH with V99I, Y102L
VL: B1 VL
B4 gave a Kd [1] of 0.778 nM, a koff [1] of 0.000291 s⁻¹ and a kon [1] of 374000 M⁻¹ s⁻¹.

B5: K4G3 (antibody, V domains shown)
VH: B1 VH with E54D
VL: B1 VL with S30G, Q50S
B5 gave a Kd [1] of 3.08 nM, a koff [1] of 0.00108 s⁻¹ and a kon [1] of 351000 M⁻¹ s⁻¹.

B6: K3G3 (antibody, V domains shown)
VH: B1 VH with E54D
VL: B1 VL with S30G
B6 showed a Kd [1] of 3.34 nM, a koff [1] of 0.00134 s⁻¹ and a kon [1] of 400000 M⁻¹ s⁻¹.

B7: K4G4 (antibody, V domains shown)
VH: B1 VH with Y102L
VL: B1 VL with S30G, Q50S
For B7, the Kd [1] was 2.25 nM, the koff [1] was 0.00082 s⁻¹ and the kon [1] was 364000 M⁻¹ s⁻¹.

B8: K4G7 (antibody, V domains shown)
VH: B1 VH with V99I, S104T
VL: B1 VL with S30G, Q50S
In the case of B8, the Kd [1] is reported as 3.2 nM, the koff [1] is reported as 0.00127 s⁻¹ and the kon [1] is reported as 396000 M⁻¹ s⁻¹.

B9: K4G12 (antibody, V domains shown)
VH: B1 VH with E54D, V99I, Y102L, S104T
VL: B1 VL with S30G, Q50S
Work on B9 yielded a Kd [1] of 0.686 nM, a koff [1] of 0.000326 s⁻¹ and a kon [1] of 476000 M⁻¹ s⁻¹.

B10: hS4B6-H6K3-hu05 (antibody, V domains shown)
VH: B1 VH with M34L, I48M, G66N, D77N
VL: B1 VL with Y28D, S30G, Q50S, S56D, F71Y
notes: H6K3 with heavy chain I48M
With B10 the “Binding Response (nm)” value [2] was 0.139 nm, the Kd [2] was 39.4 nM and the koff [2] was 0.0152 s⁻¹. The kon [2] was 387000 M⁻¹ s⁻¹.

B11: K4G6 (antibody, V domains shown)
VH: B1 VH with E54D, V99I
VL: B1 VL with S30G, Q50S
Binder B11 has a Kd [1] of 2.33 nM, a koff [1] of 0.000994 s⁻¹ and a kon [1] of 426000 M⁻¹ s⁻¹.

B12: K2G3 (antibody, V domains shown)
VH: B1 VH with E54D
VL: B1 VL with Q50S
Binder B12 has a Kd [1] of 1.32 nM, a koff [1] of 0.000512 s⁻¹ and a kon [1] of 389000 M⁻¹ s⁻¹.

B13: K4G1 (antibody, V domains shown)
VH: B1 VH
VL: B1 VL with S30G, Q50S
For B13, the Kd [1] was 4.28 nM, the koff [1] was 0.00151 s⁻¹ and the kon [1] was 352000 M⁻¹ s⁻¹.

B14: K3G10 (antibody, V domains shown)
VH: B1 VH with E54D, V99I, S104T
VL: B1 VL with S30G
B14 gave a Kd [1] of 1.46 nM, a koff [1] of 0.000585 s⁻¹ and a kon [1] of 402000 M⁻¹ s⁻¹.

B15: K3G1 (antibody, V domains shown)
VH: B1 VH
VL: B1 VL with S30G
B15 gave a Kd [1] of 4.4 nM, a koff [1] of 0.00186 s⁻¹ and a kon [1] of 424000 M⁻¹ s⁻¹.

B16: K4G2 (antibody, V domains shown)
VH: B1 VH with V99I
VL: B1 VL with S30G, Q50S
Binder B16 has a Kd [1] of 3.72 nM, a koff [1] of 0.00143 s⁻¹ and a kon [1] of 384000 M⁻¹ s⁻¹.

B17: K3G7 (antibody, V domains shown)
VH: B1 VH with V99I, S104T
VL: B1 VL with S30G
Binder B17 has a Kd [1] of 1.96 nM, a koff [1] of 0.000656 s⁻¹ and a kon [1] of 336000 M⁻¹ s⁻¹.

B18: K2G8 (antibody, V domains shown)
VH: B1 VH with V99I, Y102L
VL: B1 VL with Q50S
In the case of B18, the Kd [1] is reported as 1.13 nM, the koff [1] is reported as 0.000507 s⁻¹ and the kon [1] is reported as 448000 M⁻¹ s⁻¹.

B19: hS4B6-H6K3-hu02 (antibody, V domains shown)
VH: B1 VH with I29F, M34L, G66N, D77N
VL: B1 VL with Y28D, S30G, Q50S, S56D, F71Y
notes: H6K3 with heavy chain I29F
B19: no binding (tested: 100 nM (highest antigen concentration)) [2].

B20: K2G10 (antibody, V domains shown)
VH: B1 VH with E54D, V99I, S104T
VL: B1 VL with Q50S
For B20, the Kd [1] was 0.973 nM, the koff [1] was 0.000418 s⁻¹ and the kon [1] was 429000 M⁻¹ s⁻¹.

B21: K4G10 (antibody, V domains shown)
VH: B1 VH with E54D, V99I, S104T
VL: B1 VL with S30G, Q50S
B21 showed a Kd [1] of 2.47 nM, a koff [1] of 0.000907 s⁻¹ and a kon [1] of 367000 M⁻¹ s⁻¹.

B22: K3G4 (antibody, V domains shown)
VH: B1 VH with Y102L
VL: B1 VL with S30G
For B22, the Kd [1] was 3 nM, the koff [1] was 0.00122 s⁻¹ and the kon [1] was 408000 M⁻¹ s⁻¹.

B23: K3G6 (antibody, V domains shown)
VH: B1 VH with E54D, V99I
VL: B1 VL with S30G
In the case of B23, the Kd [1] is reported as 2.13 nM, the koff [1] is reported as 0.000844 s⁻¹ and the kon [1] is reported as 397000 M⁻¹ s⁻¹.

B24: K2G6 (antibody, V domains shown)
VH: B1 VH with E54D, V99I
VL: B1 VL with Q50S
Work on B24 yielded a Kd [1] of 1.33 nM, a koff [1] of 0.000593 s⁻¹ and a kon [1] of 446000 M⁻¹ s⁻¹.

B25: K1G12 (antibody, V domains shown)
VH: B1 VH with E54D, V99I, Y102L, S104T
VL: B1 VL
In the case of B25, the Kd [1] is reported as 0.927 nM, the koff [1] is reported as 0.000396 s⁻¹ and the kon [1] is reported as 428000 M⁻¹ s⁻¹.

B26: K2G7 (antibody, V domains shown)
VH: B1 VH with V99I, S104T
VL: B1 VL with Q50S
Binder B26 has a Kd [1] of 1.35 nM, a koff [1] of 0.000489 s⁻¹ and a kon [1] of 361000 M⁻¹ s⁻¹.

B27: K2G5 (antibody, V domains shown)
VH: B1 VH with S104T
VL: B1 VL with Q50S
B27 was tested, and the Kd [1] was 1.4 nM, the koff [1] was 0.000553 s⁻¹ and the kon [1] was 396000 M⁻¹ s⁻¹.

B28: hS4B6-H6K3-hu04 (antibody, V domains shown)
VH: B1 VH with G66N, D77N
VL: B1 VL with Y28D, S30G, Q50S, S56D, F71Y
notes: H6K3 with heavy chain L34M
In the case of B28, the “Binding Response (nm)” value [2] is reported as 0.143 nm, the Kd [2] is reported as 34.6 nM and the koff [2] is reported as 0.0149 s⁻¹. For the same binder, the kon [2] was 430000 M⁻¹ s⁻¹.

B29: K1G11 (antibody, V domains shown)
VH: B1 VH with E54D, V99I, Y102L
VL: B1 VL
With B29 the Kd [1] was 0.928 nM, the koff [1] was 0.000373 s⁻¹ and the kon [1] was 401000 M⁻¹ s⁻¹.

B30: K4G8 (antibody, V domains shown)
VH: B1 VH with V99I, Y102L
VL: B1 VL with S30G, Q50S
B30 showed a Kd [1] of 2.49 nM, a koff [1] of 0.000856 s⁻¹ and a kon [1] of 344000 M⁻¹ s⁻¹.

B31: K2G2 (antibody, V domains shown)
VH: B1 VH with V99I
VL: B1 VL with Q50S
For B31, the Kd [1] was 1.33 nM, the koff [1] was 0.000562 s⁻¹ and the kon [1] was 424000 M⁻¹ s⁻¹.

B32: K1G9 (antibody, V domains shown)
VH: B1 VH with V99I, Y102L, S104T
VL: B1 VL
B32 showed a Kd [1] of 0.856 nM, a koff [1] of 0.000285 s⁻¹ and a kon [1] of 333000 M⁻¹ s⁻¹.

B33: K4G5 (antibody, V domains shown)
VH: B1 VH with S104T
VL: B1 VL with S30G, Q50S
Binder B33 has a Kd [1] of 2.7 nM, a koff [1] of 0.00113 s⁻¹ and a kon [1] of 418000 M⁻¹ s⁻¹.

B34: hS4B6-H6K3-hu03 (antibody, V domains shown)
VH: B1 VH with A31D, M34L, G66N, D77N
VL: B1 VL with Y28D, S30G, Q50S, S56D, F71Y
notes: H6K3 with heavy chain A31D
B34: no binding (tested: 100 nM (highest antigen concentration)) [2].

B35: K3G8 (antibody, V domains shown)
VH: B1 VH with V99I, Y102L
VL: B1 VL with S30G
Binder B35 has a Kd [1] of 1.5 nM, a koff [1] of 0.000446 s⁻¹ and a kon [1] of 297000 M⁻¹ s⁻¹.

B36: hS4B6-H6K3-hu01 (antibody, V domains shown)
VH: B1 VH with D27Y, M34L, G66N, D77N
VL: B1 VL with Y28D, S30G, Q50S, S56D, F71Y
notes: H6K3 with heavy chain D27Y
B36: no binding (tested: 100 nM (highest antigen concentration)) [2].

B37: K3G9 (antibody, V domains shown)
VH: B1 VH with V99I, Y102L, S104T
VL: B1 VL with S30G
With B37 the Kd [1] was 1.49 nM, the koff [1] was 0.000529 s⁻¹ and the kon [1] was 356000 M⁻¹ s⁻¹.

B38: K3G2 (antibody, V domains shown)
VH: B1 VH with V99I
VL: B1 VL with S30G
B38 was tested, and the Kd [1] was 2.91 nM, the koff [1] was 0.00118 s⁻¹ and the kon [1] was 407000 M⁻¹ s⁻¹.
